Where a chain is given by its changes, count along the chain named.
B1: IgG-Fc-13 (VHH)
VHH: QVQLQESGGGLVQAGGSLRLSCAASGDTFSTYAMGWFRQAPGKEREFVGRIVRGTESTYLIDSVKGRFAISRDNAQNTVYLQMTSLKPEDTAVYFCVARSFGAGQWDYWGQGTQVTVSS
B2: IgG-Fc-11 (VHH)
VHH: QVQLQESGGGLVQAGGSLRLSCAVSGRTFSTYAMGWFRQAPGKEREFVGSANWKSGSTYLVDSVKGRFTISGDNAHDTVHLQMTSLKPEDTGVYFCVARSFGTGQWDYWGQGTQVTVSS
B3: IgG-Fc-12 (VHH)
VHH: B2 VHH with A51I, W53F, T58I, V61A, H76Q, D77N, V79A, H80Y, G92A, F95L
B4: IgG-Fc-14 (VHH)
VHH: QVQLQESGGGLVQTGGSLRLSCSASGGTFETYAMGWFRQAPGKEREFVGSTNWKSERTYVADSVKGRFTISRDNGQYTAYLQMTSLKPEDTAVYFCVARSFGTGQWDYWGQGTQVTVSS
B5: IgG-Fc-15 (VHH)
VHH: QVQLQESGGGLVQAGGSLRLSCAVSGRGFSTYAMGWFRQAPGKEREFVGSANWKSGSIYVADSVKGRFTISNDNAQNTVYLQMSSLKPEDTAVYYCVARSFGTGQWDYWGQGTQVTVSS

Target: Human IgG
Test: method not given

Binder | Ka
B1 | > 4e+09 M⁻¹
B2 | > 4e+09 M⁻¹
B3 | > 4e+09 M⁻¹
B4 | > 4e+09 M⁻¹
B5 | > 4e+09 M⁻¹

Reference: patent US20150307627A1
